The values that follow come from US4605614A, “Method for measuring plasmin” (Nitto Boseki Co., Ltd., priority 1981, dated 1986).

Assay in all cases: Km, Vmax and Vmax/Km of substrates for plasmin (pig)
Type in all cases: biochemical, Porcine (pig)

Substrate in data set [1]: CC(=O)NCCCC[C@@H](N)C(=O)N[C@@H](Cc1ccccc1)C(=O)N[C@@H](CCCCN)C(=O)Nc1ccc(O)c(C(=O)O)c1
Particulars: other: TABLE 2, CHA substrates, plasmin (pig), 2,6-xylenol 615 nm.

Substrate in data set [2]: CC(C)C[C@H](NC(=O)[C@H](N)C(C)C)C(=O)N[C@@H](CCCCN)C(=O)Nc1ccc(O)c(C(=O)O)c1
Particulars: other: TABLE 2, CHA substrates, plasmin (pig), 2,6-xylenol 615 nm.

Substrate in data set [3]: CC(C)OC(=O)C[C@@H](N)C(=O)N[C@@H](Cc1ccccc1)C(=O)N[C@@H](CCCCN)C(=O)Nc1ccc(O)c(C(=O)O)c1
Particulars: other: TABLE 2, CHA substrates, plasmin (pig), 2,6-xylenol 615 nm.

Substrate in data set [4]: CS(=O)(=O)NCCCC[C@@H](N)C(=O)N[C@@H](Cc1ccccc1)C(=O)N[C@@H](CCCCN)C(=O)Nc1ccc(O)c(C(=O)O)c1
The settings on record: other: TABLE 2, CHA substrates, plasmin (pig), 2,6-xylenol 615 nm.

Substrate in data set [5]: Cc1ccc(C(=O)NCCCC[C@@H](N)C(=O)N[C@@H](Cc2ccccc2)C(=O)N[C@@H](CCCCN)C(=O)Nc2ccc(O)c(C(=O)O)c2)cc1
The settings on record: other: TABLE 2, CHA substrates, plasmin (pig), 2,6-xylenol 615 nm.

Substrate in data set [6]: Cc1ccc(CCNC(=O)CC[C@@H](N)C(=O)N[C@@H](Cc2ccccc2)C(=O)N[C@@H](CCCCN)C(=O)Nc2ccc(O)c(C(=O)O)c2)cc1
Particulars: other: TABLE 2, CHA substrates, plasmin (pig), 2,6-xylenol 615 nm.

Substrate in data set [7]: Cc1ccc(CCOC(=O)CC[C@@H](N)C(=O)N[C@@H](Cc2ccccc2)C(=O)N[C@@H](CCCCN)C(=O)Nc2ccc([N+](=O)[O-])cc2)cc1
The settings on record: other: TABLE 1, PNA substrates, plasmin (pig), 405 nm.

Substrate in data set [8]: Cc1ccc(S(=O)(=O)NCC(=O)N2CCC[C@H]2C(=O)N[C@@H](CCCCN)C(=O)Nc2ccc([N+](=O)[O-])cc2)cc1
Substrate in data set [9]: Cc1ccc(S(=O)(=O)NCCCC[C@@H](N)C(=O)N[C@@H](Cc2ccccc2)C(=O)N[C@@H](CCCCN)C(=O)Nc2ccc(O)c(C(=O)O)c2)cc1
Particulars: other: TABLE 2, CHA substrates, plasmin (pig), 2,6-xylenol 615 nm.

Substrate in data set [10]: Cc1ccc(S(=O)(=O)NCCC[C@@H](N)C(=O)N[C@@H](Cc2ccccc2)C(=O)N[C@@H](CCCCN)C(=O)Nc2ccc(O)c(C(=O)O)c2)cc1
Particulars: other: TABLE 2, CHA substrates, plasmin (pig), 2,6-xylenol 615 nm.

Substrate in data set [11]: Cc1ccc(S(=O)(=O)Oc2ccc(C[C@@H](N)C(=O)N[C@@H](CC(C)C)C(=O)N[C@@H](CCCCN)C(=O)Nc3ccc(O)c(C(=O)O)c3)cc2)cc1
The settings on record: other: TABLE 2, CHA substrates, plasmin (pig), 2,6-xylenol 615 nm.

Substrate in data set [12]: Cc1ccc(S(=O)(=O)Oc2ccc(C[C@@H](N)C(=O)N[C@@H](Cc3ccccc3)C(=O)N[C@@H](CCCCN)C(=O)Nc3ccc(O)c(C(=O)O)c3)cc2)cc1
Particulars: other: TABLE 2, CHA substrates, plasmin (pig), 2,6-xylenol 615 nm.

Substrate in data set [13]: NCCCC[C@H](NC(=O)[C@H](Cc1ccccc1)NC(=O)[C@H](N)CC(=O)OC1CCCCC1)C(=O)Nc1ccc(O)c(C(=O)O)c1
The settings on record: other: TABLE 2, CHA substrates, plasmin (pig), 2,6-xylenol 615 nm.

Substrate in data set [14]: NCCCC[C@H](NC(=O)[C@H](Cc1ccccc1)NC(=O)[C@H](N)CCC(=O)NCCCCc1ccccc1)C(=O)Nc1ccc([N+](=O)[O-])cc1
Particulars: other: TABLE 1, PNA substrates, plasmin (pig), 405 nm.

Substrate in data set [15]: NCCCC[C@H](NC(=O)[C@H](Cc1ccccc1)NC(=O)[C@H](N)CCCCNC(=O)c1ccc2ccccc2c1)C(=O)Nc1ccc(O)c(C(=O)O)c1
Particulars: other: TABLE 2, CHA substrates, plasmin (pig), 2,6-xylenol 615 nm.

Substrate in data set [16]: NCCCC[C@H](NC(=O)[C@H](Cc1ccccc1)NC(=O)[C@H](N)CCCCNS(=O)(=O)c1ccc2ccccc2c1)C(=O)Nc1ccc(O)c(C(=O)O)c1
The settings on record: other: TABLE 2, CHA substrates, plasmin (pig), 2,6-xylenol 615 nm.

Substrate in data set [17]: NCCCC[C@H](NC(=O)[C@H](Cc1ccccc1)NC(=O)[C@H](N)CCCCNS(=O)(=O)c1cccc2ccccc12)C(=O)Nc1ccc(O)c(C(=O)O)c1
The settings on record: other: TABLE 2, CHA substrates, plasmin (pig), 2,6-xylenol 615 nm.

Substrate in data set [18]: NCCCC[C@H](NC(=O)[C@H](Cc1ccccc1)NC(=O)[C@H](N)CCCCNS(=O)(=O)c1ccccc1)C(=O)Nc1ccc(O)c(C(=O)O)c1
Particulars: other: TABLE 2, CHA substrates, plasmin (pig), 2,6-xylenol 615 nm.

B1: plasmin (pig) (Sus scrofa) (protein)
chain: RIYLSECKTGNGKNYRGTTSKTKSGVICQKWSVSSPHIPKYSPEKFPLAGLEENYCRNPDNDEKGPWCYTTDPETRFDYCDIPECEDECMHCSGEHYEGKISKTMSGIECQSWGSQSPHAHGYLPSKFPNKNLKMNYCRNPDGEPRPWCFTTDPNKRWEFCDIPRCTTPPPTSGPTYQCLKGRGENYRGTVSVTASGHTCQRWSAQSPHKHNRTPENFPCKNLEENYCRNPDGETAPWCYTTDSEVRWDYCKIPSCGSSTTSTEYLDAPVPPEQTPVAQDCYRGNGESYRGTSSTTITGRKCQSWVSMTPHRHEKTPGNFPNAGLTMNYCRNPDADKSPWCYTTDPRVRWEYCNLKKCSETEQQVTNFPAIAQVPSVEDLSEDCMFGNGKRYRGKRATTVAGVPCQEWAAQEPHRHSIFTPETNPRAGLEKNYCRNPDGDDNGPWCYTTNPQKLFDYCDVPQCVTSSFDCGKPKVEPKKCPARVVGGCVSIPHSWPWQISLRHRYGGHFCGGTLISPEWVLTAKHCLEKSSSPSSYKVILGAHEEYHLGEGVQEIDVSKLFKEPSEADIALLKLSSPAIITDKVIPACLPTPNYVVADRTACYITGWGETKGTYGAGLLKEARLPVIENKVCNRYEYLGGKVSPNELCAGHLAGGIDSCQGDSGGPLVCFEKDKYILQGVTSWGLGCALPNKPGVYVRVSRFVTWIEEIMRRN
Take B1: the Km in data set [1] was determined as 250 µM; in [2], 3210 µM; in data set [3], 352 µM; in data set [4] it was 326 µM; in data set [5], 76.2 µM; in data set [6], 417 µM. Also, the Km in data set [7] amounted to 42.8 µM; in data set [8] (other: Porcine Plasmin, comparison table in description) it was 278 µM; in data set [8] (other: TABLE 1, PNA substrates, plasmin (pig), 405 nm), 278 µM; in data set [9], 206 µM; in data set [10], 542 µM; in [11] it was 1440 µM. Moreover, the Michaelis-Menten constant (Km) in data set [12] is 154 µM; in [13], 379 µM; in [14] it was 45.4 µM; in data set [15], 325 µM; in data set [16], 179 µM; in [17], 596 µM. Further, the Michaelis constant (Km) in data set [18] amounted to 532 µM.
